In this data set the test system is MS2 coat protein. The experiment in a line: apparent KD of MS2 coat protein; designed switch direction (-1 OFF switch, 1 ON switch): -1; higher = weaker reporter binding. In outline:
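Designed RNA switches sharing common flanks were transcribed on Illumina chips by stalled E. coli RNA polymerase. They were titrated with SNAP-549-labelled MS2 coat protein, from 0.7 or 1.5 nM doubling to 3 µM, in Tris-HCl pH 7.5 buffer with KCl, MgCl2, BSA, DTT, tRNA and Tween-20. Titrations ran without input, with 200 uM small-molecule ligand, or with an oligonucleotide input. The apparent KD of each design is the median over its clusters, after curve-fitting of normalised cluster fluorescence.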

Where [1] appears, read: input ligand: microRNA oligo, concentration not stated.
Setting [2] is: Eterna round: R95, input ligand: microRNA oligo, concentration not stated.
Setting [3] is: Eterna round: R95, input ligand: FMN 200 uM.
[4] abbreviates: Eterna round: R95, input ligand: none.

Take “GUAGAUCAGGCUUUCAUUGACAUGAGGAUCACCCAUGUUUUGAAAGGGUGAGAGAGGUGCUUCAUAUUCAGCUCUGA [JR_Sensorv2_tov_Sub1218] (Eterna round: R96, puzzle: Sensor v2, turn-off variant)”: the “apparent KD of MS2 coat protein” value (input ligand: FMN 200 uM) was found to be 76.4 nM, the “apparent KD of MS2 coat protein” value under setting [1] was 55.3 nM and the “apparent KD of MS2 coat protein” value (input ligand: none) is 61.1 nM.

As to “GUAGCCCGAGGAUAUACAUGAGGAUCACCCAUGUAUCGUUCGAGAAGACUCGGCCCGUGUAGAAGGCGGUAUCC [Eternabot (L1) Solution 22] (Eterna round: R97, puzzle: Exclusion 3)”, the “apparent KD of MS2 coat protein” value was 25.3 nM (input ligand: FMN 200 uM) and 23.1 nM (input ligand: none).

In the case of “GUAGCUGAUAAGGAUAUUGUACCUAACCUGCGUCGAGAAGGUGUCACAUGAGGAUCACCCAUGUUUAGGCAAAG [Eternabot (L2) Solution 22] (Eterna round: R97, puzzle: Exclusion 6)”, the “apparent KD of MS2 coat protein” value (input ligand: FMN 200 uM) came out at 24.4 nM and the “apparent KD of MS2 coat protein” value (input ligand: none) came to 29.5 nM.

For “GUAGGGUCAGGAUAUACGCAGACGGUUUCGUCGGGUUAUCUACAUGAGGAUCACCCAUGUAGAAGGGAUCAUAC [Eternabot (L1) Solution 53] (Eterna round: R97, puzzle: Exclusion 2)”, the “apparent KD of MS2 coat protein” value is, setting by setting: (input ligand: FMN 200 uM) 53.4 nM; (input ligand: none) 15.8 nM.

With “GUAGGGUCAGGAUAUACGGGCGGGAGGAUGUAGUGGAGUUGGUAGAAGGGACAUGAGGAUCACCCAUGUGAGAA [JR_Exclu4_Sub053] (puzzle: Exclusion 4)”, the “apparent KD of MS2 coat protein” value under setting [2] was 27.3 nM.

In the case of “GUAUAACAUGUAGGAUAUGCGUGGCGAAGCUAUGCAGAAGGACAUGAGGAUCACCCAUGUUUUUGCGUCUGCGUACAGAUGCUA [JL ENG1 1.40] (Eterna round: R96, puzzle: Exclusion NG 1)”, the “apparent KD of MS2 coat protein” value came out at 107 nM (input ligand: FMN 200 uM), 15.2 nM under setting [1] and 21.5 nM (input ligand: none).

As for “GUAUAACUACACGGGCUCAACAUGAGGAUCACCCAUGUAAUAUACGCAAGCUUUUUGCUUGUCUUAUCUGUCCGUGA [Aanrius] (puzzle: Sensor v3, turn-off variant 1)”, the “apparent KD of MS2 coat protein” value runs as follows: under setting [3], 12.3 nM; under setting [2], 9.56 nM; under setting [4], 11.4 nM.

Regarding “GUAUACAAGCAAAGAUCCCACAUGAGGAUCACCCAUGUGCUCGUCUUAUAAGGUACUGUGACGAAAGUCACGGUACC [Mat - Sensor, turn-off var - Eli Mod - D103] (Eterna round: R97, puzzle: Sensor, turn-off variant 1)”, the “apparent KD of MS2 coat protein” value was found to be 42.9 nM (input ligand: FMN 200 uM) and 43 nM (input ligand: none).

For “GUAUACAGAGGAUAUACGUGCGGCGUCAAAUGUCCAAGAGUACAUGAGGAUCACCCAUGUAGAAGGUUGAAAGC [Eternabot (L1) Solution 15] (Eterna round: R97, puzzle: Exclusion 2)”, the “apparent KD of MS2 coat protein” value turned out to be 21.7 nM (input ligand: FMN 200 uM) and 26.6 nM (input ligand: none).

Regarding “GUAUGUUAUGAGGAUAUCGGUGAACAUACACAUCGAGAAGGCAUGACAUGAGGAUCACCCAUGUCAAGGAUGAG [Exclusion 6 - B - 18:c] (puzzle: Exclusion 6)”, the “apparent KD of MS2 coat protein” value by setting is: under setting [3], 71.9 nM; under setting [2], 17.7 nM; under setting [4], 22.7 nM.

For “GUAUGUUAUGAGGAUAUCGGUGAACAUACACAUCGAGAAGGCAUGACAUGAGGAUCACCCAUGUCGAGGAUGAA [Exclusion 6 - B - 18:e] (puzzle: Exclusion 6)”, the “apparent KD of MS2 coat protein” value by setting is: under setting [3], 47.2 nM; under setting [2], 18 nM; under setting [4], 23.7 nM.

Consider “GUCACAUGGACAUAGGAUCACAUGAGGAUCACCCAUGUGACUAACAAGCUUUUUGUUCGUCUUAUGUCCAUGUGAAU [Stov1/15-B1] (Eterna round: R97, puzzle: Sensor, turn-off variant 1)”, for which the “apparent KD of MS2 coat protein” value reads like this: (input ligand: FMN 200 uM) 13.7 nM; (input ligand: none) 12 nM.

As to “GUCACUAGAGGAUAUACAAUGGUAUAUGAUCCUAGAGACAUACAUGAGGAUCACCCAUGUAGAAGGCUAGUAUU [Exclusion 2 - 5] (Eterna round: R96, puzzle: Exclusion 2)”, the “apparent KD of MS2 coat protein” value (input ligand: FMN 200 uM) was determined as 52.9 nM, the “apparent KD of MS2 coat protein” value under setting [1] came to 53.1 nM and the “apparent KD of MS2 coat protein” value (input ligand: none) was found to be 52.5 nM.

On to “GUCACUAGAGGAUAUACAAUGGUAUAUGAUCCUAGAGACAUACAUGAGGAUCACCCAUGUAGAAGGCUAGUAUU [Exclusion 2 - 5] (puzzle: Exclusion 2)”, for which the “apparent KD of MS2 coat protein” value under setting [2] was 58.3 nM.

For “GUCAGACGAGGAUAUAAAUUUGAUAACAUGAGGAUCACCCAUGUGAUCGAUAGAUCAAAUUUAGAAGGCGUCUGAC [E5/7-A4] (Eterna round: R97, puzzle: Exclusion 5)”, the “apparent KD of MS2 coat protein” value is 520 nM (input ligand: FMN 200 uM) and 492 nM (input ligand: none).

Regarding “GUCAGACGAGGAUAUAGAUUUAGAUACAUGAGGAUCACCCAUGUAUAUAUGUAUUUAGAUUUAGAAGGCGUCUGAC [E5/15-A3] (Eterna round: R97, puzzle: Exclusion 5)”, the “apparent KD of MS2 coat protein” value is 187 nM (input ligand: FMN 200 uM) and 240 nM (input ligand: none).

Turning to “GUCAGACGAGGAUAUGAUUAAUAAUACAUGAGGAUCACCCAUGUAAUACUGAUCUAUGGAUCAGAAGGCGUCUGAC [E5/6-A4] (Eterna round: R97, puzzle: Exclusion 5)”, the “apparent KD of MS2 coat protein” value by setting is: (input ligand: FMN 200 uM) 15 nM; (input ligand: none) 16.1 nM.

For “GUCAGCUCGUCAGGAUAUACAUGAGGAUCACCCAUGUGAUCAAUAGCAGCUUCGGCUGCAUUAAUGUAGAAGGGACGAGCUGAU [ENG2/5-B2] (Eterna round: R96, puzzle: Exclusion NG 2)”, the “apparent KD of MS2 coat protein” value under setting [1] is 168 nM.

Take “GUCAGCUCGUCAGGAUAUACAUGAGGAUCACCCAUGUGGUCAAUAGCAGCUUCGGCUGCAUACAUGUAGAAGGGACGAGCUGAC [ENG2/7-B1] (Eterna round: R96, puzzle: Exclusion NG 2)”: the “apparent KD of MS2 coat protein” value turned out to be 18.8 nM (input ligand: FMN 200 uM), 6.88 nM under setting [1] and 78.2 nM (input ligand: none).

Regarding “GUCAGCUCGUCAGGAUAUAUAUACAUGAGGAUCACCCAUGUAAGAUCAGCACUUCGGUGCAGUAUAUAGAAGGGACGAGCUGAC [ENG2/13-B1] (Eterna round: R96, puzzle: Exclusion NG 2)”, the “apparent KD of MS2 coat protein” value by setting is: (input ligand: FMN 200 uM) 40.6 nM; under setting [1], 13.7 nM; (input ligand: none) 29.1 nM.

On to “GUCAGCUCGUGAGGAUAUAUUAACAUGAGGAUCACCCAUGUAAGAUCAGGCUUCGGCCAAUGUUAAUAGAAGGCACGAGCUGAC [ENG2/12-A1] (Eterna round: R96, puzzle: Exclusion NG 2)”, for which the “apparent KD of MS2 coat protein” value (input ligand: FMN 200 uM) came out at 739 nM, the “apparent KD of MS2 coat protein” value under setting [1] stood at 38.9 nM and the “apparent KD of MS2 coat protein” value (input ligand: none) is 72.9 nM.

Consider “GUCAGGUAUCGAGGAUAUGUGAAAGGAAGUGUAACAGAAGGCGAGGGCUUGACAUGAGGAUCACCCAUGUGAAGUGAUUCGAAG [PowerStrip EXNG 1.22] (Eterna round: R96, puzzle: Exclusion NG 1)”, for which the “apparent KD of MS2 coat protein” value was 51.8 nM (input ligand: FMN 200 uM), 52.5 nM under setting [1] and 62.9 nM (input ligand: none).

Turning to “GUCAGGUAUCGAGGAUAUGUGAAAGGAAGUGUAGCAGAAGGCGAGGGCUUGACAUGAGGAUCACCCAUGUGAAGUGAUUCGAAG [17th something] (Eterna round: R96, puzzle: Exclusion NG 1)”, the “apparent KD of MS2 coat protein” value is, setting by setting: (input ligand: FMN 200 uM) 76.4 nM; under setting [1], 41 nM; (input ligand: none) 64.2 nM.

With “GUCAUCAAACAUGGGAUUAACAUGAGGAUCACCCAUGUUAACAAGUUUUUUGCUCGUCUUAUAAUAAGUUUGAUGAC [Antenna 10 - Jieux - Sensor, turn-off variant 1] (Eterna round: R97, puzzle: Sensor, turn-off variant 1)”, the “apparent KD of MS2 coat protein” value reads like this: (input ligand: FMN 200 uM) 7.6 nM; (input ligand: none) 13 nM.

With “GUCAUCAAACAUGGGUUAAACAUGAGGAUCACCCAUGUUAUCAAGUUUUUUGCUCGUCUUAUAAUAAGUUUGAUGAC [Antenna 12 - Jieux - Sensor, turn-off variant 1] (Eterna round: R97, puzzle: Sensor, turn-off variant 1)”, the “apparent KD of MS2 coat protein” value was 35.7 nM (input ligand: FMN 200 uM) and 41 nM (input ligand: none).

On to “GUCAUCAAUCAUGGGAUAAACAUGAGGAUCACCCAUGUAUACAAGUUUUUUGCUCGUCUUAUAAUAAGAUUGAUGAC [Antenna 5 - Jieux - Sensor, turn-off variant 1] (Eterna round: R97, puzzle: Sensor, turn-off variant 1)”, for which the “apparent KD of MS2 coat protein” value reads like this: (input ligand: FMN 200 uM) 13.7 nM; (input ligand: none) 15.9 nM.

As for “GUCAUCGCAGGAUAUUAGAAUUUUUACAUGAGGAUCACCCAUGUUAAUUGGGUCUAAGUCUAAGAAGGGCGAUGAA [JR_EX5_Sub012] (Eterna round: R97, puzzle: Exclusion 5)”, the “apparent KD of MS2 coat protein” value is 105 nM (input ligand: FMN 200 uM) and 32.4 nM (input ligand: none).

Consider “GUCAUGUAAGGAUAUCUUACAUGUGACUUCGGUCACUGUCGAGAGAAGGUACAUGAGGAUCACCCAUGUUCGAC [Ex4-3: 53] (puzzle: Exclusion 4)”, for which the “apparent KD of MS2 coat protein” value under setting [2] turned out to be 15.6 nM.

On to “GUCAUGUUAGGAUAUCUAACAUGUGACUUCGGUCACUGUCCAGAGAAGGAACAUGAGGAUCACCCAUGUUGGAC [Ex4-3: 56] (Eterna round: R96, puzzle: Exclusion 4)”, for which the “apparent KD of MS2 coat protein” value (input ligand: FMN 200 uM) was 16.5 nM, the “apparent KD of MS2 coat protein” value under setting [1] is 13.9 nM and the “apparent KD of MS2 coat protein” value (input ligand: none) amounted to 18.3 nM.

Take “GUCAUGUUAGGAUAUCUAACAUGUGACUUCGGUCACUGUCCAGAGAAGGAACAUGAGGAUCACCCAUGUUGGAC [Ex4-3: 56] (puzzle: Exclusion 4)”: the “apparent KD of MS2 coat protein” value under setting [2] came out at 13 nM.

The record behind these values is the supplement of paper PMC9170038.
